Results taken from patent US20220226473A1, “Nucleic acid nanocarrier drug and preparation method thereof, pharmaceutical composition and application thereof” (BAI YAO ZHI DA (BEIJING) NANOBIO TECHNOLOGY CO., LTD., priority 2018, published 2022).
{Biotin} = biotin of the strand; {Cy5} = Cy5 fluorescent label

Legend:
NCI-H1975 cells [1] = assay: Flow cytometry binding of DNAh-Bio-EGFRapt-Cy5-EPB nanoparticles; assay type: cell-based; conditions: 2 hours
Experimental: (§1) MCF-7 (source: ATCC, and article number: HTB-22), NCI-H1975 (source: ATCC, and article number: CRL-5008); a culture medium is MEM+10% FBS, and culture conditions are 37 DEG C., 5% CO2, and saturated humidity.
(§2) 1. Adjusting a cell state to a logarithmic growth phase, changing the medium to a medium without biotin and folic acid, and incubating overnight in the incubator at 37 DEG C;
(§3) 2. dissolving the substances to be tested and preparing the to-be-tested substance stock solution;
(§4) 3. digesting and collecting the single-cell suspension and counting, adjusting the cell density to 2×10^5/mL, planting 1 mL/well into the 24-well plate;
(§5) 4. respectively adding the substances to be tested to the corresponding cell wells, herein the final concentration is 2 μM, shaking and mixing uniformly;
(§6) 5. placing the cell plate in the incubator at 37 DEG C. and incubating for 2 hours;
(§7) 6. after the incubation, pancreatin-digesting and collecting the cell suspension;
(§8) 7. centrifugally collecting a cell precipitation, and washing twice with the PBS;
(§9) 8. finally, resuspending the cell precipitation with 300 μL of the PBS, and performing a flow cytometric on-machine detection;
(§10) 9. fluorescence carrier or epirubicin detection channels: excitation light wavelength: 488 nm, and emission light channel: 560 nm; and […]

MCF-7 cells = assay: as above; assay type: cell-based, human; conditions: 2 hours
Experimental: as §1, §2, §3, §4, §5, §6, §7, §8, §9, §10

SKOV3 cells [2] = assay: Cytotoxicity of DNAh-Biotin-EGFRapt-Cy5-THP nanoparticles; assay type: cell-based, human; conditions: SKOV3
Experimental: (§11) 2) adjusting the cell density to 2.22×10^4/mL with a growth medium:
(§12) 3) planting 90 μL/well of cell suspension into the 96-well plate, herein the number of cells per well in the plate is 2000;
(§13) 4) placing the planted cell plate in the incubator at 37 DEG C. and incubating overnight;
(§14) 5) performing 3.16-fold gradient dilution on the compound at 9 concentration points;
(§15) 6) taking out the cell culture plate, and adding 10 μL/well of 10× concentration drug working solution to the corresponding wells of the cell culture plate, herein three replicate holes are made for each concentration, and the final drug action concentration is shown in the table below.
(§16) 7) placing the cell culture plate in the incubator and continuously incubating for 96 hours;
(§17) 8) placing the CellTiter 96@D AQueous One Solution reagent at the room temperature and thawing for 90 minutes or thawing in a water bath at 37 DEG C., and then equilibrating at the room temperature for 30 minutes;
(§18) 9) adding 20 μL/well of the CellTiter 96® AQueous One Solution reagent to the cell culture plate;
(§19) 10) placing the cell culture plate in the incubator at 37 DEG C. and continuously incubating for 3 hours;
(§20) 11) using the microplate reader to read a OD490 value of each well in the cell plate; and
(§21) 12) data processing and analysis.
(§22) GraphPad Prism5.0 software is used to process data graphically. In order to calculate the IC50, […] non-linear regression analysis is performed on the data to match a suitable dosage-effect curve. A calculation formula of the cell survival rate is as follows, the IC50 may be automatically calculated in the GraphPad Prism 5.0.
(§23) Cell survival rate (%)=(ODtest well−ODblank control)/(ODnegative control−ODblank control)×100%.
(§24) II. Experiment Device and Method Same as (II)

SGC-7901 cells [3] = assay: as above; assay type: cell-based, human; conditions: SGC-7901
Experimental: as §11, §12, §13, §14, §15, §16, §17, §18, §19, §20, §21, §22, §23, §24

NCI-H1975 cells [4] = assay: Cytotoxicity of DNAh-Bio-EGFRapt-Cy5-EPB nanoparticles, CellTiter 96 AQueous One Solution; assay type: cell-based; conditions: NCI-H1975, 96 hours
Experimental: GraphPad Prism5.0 software is used to process data graphically. In order to calculate the IC50, “W”-shaped non-linear regression analysis is performed on the data to match a suitable dosage-effect curve. A calculation formula of the cell survival rate is as follows, the IC50 may be automatically calculated in the GraphPad Prism 5.0.

SKOV3 cells [5] = assay: Flow cytometer binding of pirarubicin-loaded DNA nanoparticles; assay type: cell-based, human; conditions: SKOV3, 2 μM, 2 hours
Experimental: (§25) 1). Adjusting a cell state to a logarithmic growth phase, changing the medium to a medium without biotin and folic acid, and incubating overnight in the incubator at 37 DEG C;
(§26) 2). dissolving the substances to be tested and preparing the to-be-tested substance stock solution;
(§27) 3). digesting and collecting the single-cell suspension and counting, adjusting the cell density to 2×10^5/mL, planting 1 mL/well into the 24-well plate;
(§28) 4). respectively adding the substances to be tested to the corresponding cell wells, herein the final concentration is 2 μM, shaking and mixing uniformly;
(§29) 5). placing the cell plate in the Incubator at 37 DEG C. and Incubating for 2 hours;
(§30) 6). after the incubation, pancreatin-digesting and collecting the cell suspension;
(§31) 7). centrifugally collecting a cell precipitation, and washing twice with the PBS;
(§32) 8). finally, resuspending the cell precipitation with 300 μL of the PBS, and performing a flow cytometric on-machine detection; herein detection channels of fluorescence carrier or pirarubicin targeted drug: excitation light wavelength: 488 nm, and emission light channel: 560 nm; and […]

SGC-7901 cells [6] = assay: as above; assay type: cell-based, human; conditions: SGC-7901, 2 μM, 2 hours
Experimental: as §25, §26, §27, §28, §29, §30, §31, §32

B1: DNAh-Bio-EGFRapt-Cy5: targeted fluorescent carrier: DNA nanoparticle, strands SEQ ID NO: 172-174, 5′ biotin, EGFRapt, 3′ Cy5, thio-modified ends (nucleic acid)
chain 1: CGCGCGCCCACGAGCGTTCCGGGCGCGCCTTAGTAACGTGCTTTGATGTCGATTCGACAGGAGGC
chain 2: GCGCCCGGTTCGCCGCCAGCCGCCGC
chain 3: GCGGCGGCAGGCGGCCATAGCCGTGGGCGCGCG
modifications: chain 1: DNA, 5' {Biotin}, backbone not given here; chain 2: DNA, backbone not given here; chain 3: DNA, 3' {Cy5}, backbone not given here; first and last three bases thio-modified, DNA nanoparticle with EGFR aptamer, further chemistry not fully specified
binding rate to NCI-H1975 cells (NCI-H1975 cells [1]; 2 μM): 100%
Binding rate (%) (NCI-H1975 cells [1]; NCI-H1975, 2 μM): 100%
binding rate to MCF-7 cells (MCF-7 cells; 2 μM): 100%
Binding rate (%) (MCF-7 cells; MCF-7, 2 μM): 99.97%
IC50 (SKOV3 cells [2]): > 1000 nM
IC50 (SGC-7901 cells [3]): > 316 nM
IC50 (NCI-H1975 cells [4]): > 316 nM
Binding rate (%) (SKOV3 cells [5]): 100%
Binding rate (%) (SGC-7901 cells [6]): 99.99%
